# Experimental data from the supplement of paper PMC9170038.
# Test system: MS2 coat protein
# Experiment: apparent KD of MS2 coat protein, switch OFF state (with FMN for OFF switches, without FMN for ON switches); designed switch direction (-1 OFF switch, 1 ON switch): -1; higher = weaker reporter binding
# Details: FMN input: 0 or 200 uM; Eterna round: R93 (includes R88 designs)
# Summary of the method: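 Designed RNA switches, transcribed on-chip from Illumina sequencing clusters, were titrated with SNAP-549-labelled MS2 coat protein from 0.7 or 1.5 nM to 3 µM in twofold steps. The solution was 100 mM Tris-HCl pH 7.5, 80 mM KCl, 4 mM MgCl2, with constant ligand or without it. Apparent KD is the median over each design's normalised cluster binding-curve fits.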
row,Sequence,apparent KD of MS2 coat protein
1,AAAAACCUAGGAUAUACAUGAGGAUCACCCAUGUAAAAAAAAAAAAAGGGAAAAAAAAGUAGAAGGAGGAAAAA [Sekhemre Wadjkhaw Sobekemsaf I],24.9 nM
2,UUUAUGUGAGGAUAUGUACAGAAAAAAAAGGGUGUAACUGUACAGAAGGCACAUGAGGAUCACCCAUGUGCAUU [EX4 382: S S Pseudoknot 7],21.8 nM
3,GGAUGCGUAGGAUAUACAUGAGGAUCACCCAUGUGAGAGAAAAAAGUGAGAAAGAAAAGUAGAAGGACGUGUCG [salish99-ex3-90],85.6 nM
4,AAGAUGUUAGGAUAUGCUGCUCGUCACAAAAGUGAUGAGUAGCAGAAGGGACAUGAGGAUCACCCAUGUAAAGA [JL eternac mod 6],34.8 nM
5,AACAGUACAGGAUAUACAUGAGGAUCACCCAUGUAGAGAAAAUAAAACAAAAAUAAAAGUAGAAGGGUACUGGA [Ruby 47],26.4 nM
6,AGCUAGUCAGGAUAUACGAACAUGUCAAAAGACGUGAAAUAACAUGAGGAUCACCCAUGUAGAAGGGACUAGCA [Mat - Exclusion 2 - JL-Eli mod - D52],15.5 nM
7,AUAAACAGAGGAUAUACGCAAAUAAAAGAAAAUAAAGAAACACAUGAGGAUCACCCAUGUAGAAGGCUGGAAAA,16.7 nM
8,CUCUUGUCAGGAUAUGUAAGAAAAGAAGAGAAAGAAAAGAAACAGAAGGGACAUGAGGAUCACCCAUGUAAGAA [EteRNA is fun!],77 nM
9,AAACCACAUGAGGAUCACCCAUGUCAGGAUAUGCUAUGGAAAAUAAAAAUAAAACAUAGCAGAAGGGACAAAAA [Denovo 6],66 nM
10,AAGCUGGUAGGAUAUACUAGGGCGACUAAUGCGCCGAUAGGACAUGAGGAUCACCCAUGUAGAAGGGCCAGAAA [JR_Exc002_Sub406],70 nM
11,AAAAGGGCAGGAUAUACAUGAGGAUCACCCAUGUGAAAAAAAAAAAAAAAAAAAAAGUGUAGAAGGGUCAAAAA [Exclusion 3 - Omei 3],95.4 nM
12,AACAUGUCAGGAUAUGCAACAGGAGACUGACACGCGAGUGAGCAGAAGGGACAUGAGGAUCACCCAUGUUCAAA [Meechl Ex4 3],17.1 nM
13,CUCUUGUAAGGAUAUUAAUGAAAUGAAGUGAAAGAAAAGAAUAAGAAGGUACAUGAGGAUCACCCAUGUUAGAA [EteRNA is fun!],27 nM
14,GUGUACAGAGGAUAUACAUGGGCAUGGAAACAUGCAUCCUCACAUGAGGAUCACCCAUGUAGAAGGCUGUACAC [Ex2: 708],20.9 nM
15,AGGAAACAUGAGGAUCACCCAUGUGAGGAUAUACAAAAGAAAAGAAAAGAAAGAAGAAGUAGAAGGCACAAGAA [Thesh],29.5 nM
16,AAAAAACAUGAGGAUCACCCAUGUUAGGAUAUUCCUAAAAAAAAAAAAAAAAAAAAUGGAAGAAGGAACAAAAA [excalibur10],30.2 nM
17,AAAAAGUGAGGAUAUCUGGAUAGGAAAAAGAAAACCUAUCCAGAGAAGGCACAUGAGGAUCACCCAUGUAAAAA [JL cataway mod 5],41.2 nM
18,AAGAAGUGAGGAUAUGGAAAAGAAAAGAAAAGAAAAGAAAACCAGAAGGCACAUGAGGAUCACCCAUGUAAGAA [Artabanus the Hyrcanian],28 nM
19,AACAGGUCAGGAUAUGUGCAACAGAAAAGAGCAGAAUAAGCACAGAAGGGACAUGAGGAUCACCCAUGUUAACA [May 27],32.2 nM
20,AACAAGUAAGGAUAUGCUGCUCGUCACAAAAGUGAUGAGUAGCAGAAGGUACAUGAGGAUCACCCAUGUAAAGA [JL eternac mod 16],21.1 nM
21,AUCAUGUAAGGAUAUUAAAGAAAAGAAAAGAAAGAAAAGAAUAAGAAGGUACAUGAGGAUCACCCAUGUAAGAA [EteRNA is fun!],17 nM
22,AAGAAGUGAGGAUAUACAUGAGGAUCACCCAUGUAAAAGAAAGAAGGGAAAGAGAAAAGUAGAAGGCGCAAGAA [Neferibre Psamtik II],42.1 nM
23,CUCUUGUGAGGAUAUCCAUGAAAUGAAGUGAAAGAAAAGAAGGAGAAGGCACAUGAGGAUCACCCAUGUUAGAA [EteRNA is fun!],24.3 nM

row,Sequence,apparent KD of MS2 coat protein
1,AAAACGGUAGGAUAUACAAUUGGGAACUAGACCGAAAAAAAACAUGAGGAUCACCCAUGUAGAAGGGCCAAAAA [Ex2 Malc#11],91.2 nM
2,AAGAAGCAAGGAUAUACAUGAGGAUCACCCAUGUAAAAGAAAGAAAGGGAAAAGAAAAGUAGAAGGUGCAAGAA [Titkheperure Pasebakhenniut II],57 nM
3,AUACGCUGAGGAUAUACCGAAACAACAUCCUCGUGUAUAAUACAUGAGGAUCACCCAUGUAGAAGGCAGUAAAA [Usmaan],85.5 nM
4,AACUGACAUGAGGAUCACCCAUGUCAGGAUAUGCAUCUUAGGAAAAAAAAACUAAGAUGCAGAAGGGACAAGGG [Amethyst 48],33.1 nM
5,AAGAAGUUAGGAUAUACAAGAAAGAAAGAAAAGAAAAGAAAACAUGAGGAUCACCCAUGUAGAAGGAACUAGAA [EteRNA is fun!],19.6 nM
6,AAAAAUGCAGGAUAUACGAACAUGUCAAAAGACGUGAAGGGACAUGAGGAUCACCCAUGUAGAAGGGUAAAGAA [JL Neck Breaker 14],46 nM
7,AAAAAACAUGAGGAUCACCCAUGUGAGGAUAUACAAAACCCAUAUAAAAAGGGAAAAAGUAGAAGGCACAAAAA [wbt round 1 mod 11],33.9 nM
8,AUCAUGUUAGGAUAUAAAAGAAAAGAAAAGAAAGAAAAGAAUUAGAAGGAACAUGAGGAUCACCCAUGUAAGAA [EteRNA is fun!],26.5 nM
9,GAAAAACAUGAGGAUCACCCAUGUAAGGAUAUGCUAAAAAACACGGAAAACGUGAAUAGCAGAAGGUACAAAAA [Mat - Exclusion 1 - Eli mod - D86],23.6 nM
10,AGCUAGUCAGGAUAUACGAACAGGUGAAAAGACGUAAGGGAACAUGAGGAUCACCCAUGUAGAAGGGACUAGCA [Diamond 53],99.3 nM
11,AAGAGGCUAGGAUAUACACAUCUGAUGACUCAACCUAAAACACAUGAGGAUCACCCAUGUAGAAGGAGCGAAAG [Qucequor],17 nM
12,AACUGACAUGAGGAUCACCCAUGUCAGGAUAUGCUUCAUAAAAAAAAAAAAAAAUGAUGCAGAAGGGAUAUGGG [Design 33 :P Sub-opt 9],34.3 nM
13,AAAAAGUGAGGAUAUACAUGAGGAUCACCCAUGUAAAAGGUCAGGGUGGCGGAGGACGGUAGAAGGCGCAAAAA [Excls3-IX],40.2 nM
14,AGUAGUACAGGAUAUACAUGAGGAUCACCCAUGUGAAAAUUAAGUGGCGUACCACAAAGUAGAAGGGUACUACA [Mat - Exclusion 3 - JL mod - D36],148 nM
15,AAAAAGUGAGGAUAUACAUGAGGAUCACCCAUGUAAAAGGUCGCGGGAGCGGAGGACGGUAGAAGGCGCAAAAA [Excls3-VIIi],28.9 nM
16,AACAGUACAGGAUAUACAUGAGGAUCACCCAUGUGAGAAUUAAAAGGCGUACCUAAAAGUAGAAGGGUACUGGA [JL Maslow Revisted mod 18],73.2 nM
17,AAAAAGGCAGGAUAUACAAAACAGGGAAACCUGAAAGGGAAACAUGAGGAUCACCCAUGUAGAAGGGCCAAGAA [Clint Eastwood 64% 1],95.4 nM
18,GCUGGCCUAGGAUAUACAUGAGGAUCACCCAUGUGAGAGAAAAAAGUGAGAAAGAAAAGUAGAAGGAGGUUAGG [salish99-ex3-115],57.2 nM
19,"AAAAAGUCAGGAUAUACGGGAGUGCGAAAGCACAAAAAAAAACAUGAGGAUCACCCAUGUAGAAGGGACAAGAA [Married to this design, 61% 5]",34.5 nM
20,AGCUAGUCAGGAUAUACGAACAGGUCAAAAGACGUGAAGGGACAUGAGGAUCACCCAUGUAGAAGGGACUAGCA [Mat - Exclusion 2 - JL mod - D23],116 nM
21,UAGAACCUAGGAUAUACUUGGAAAAAUAAUGCAAAGAUAUAACAUGAGGAUCACCCAUGUAGAAGGAGGAGUAA [JR_Exc002_Sub020],35.9 nM
22,AACAUGUGAGGAUAUUAAAGAAAAGAAAAGAAAGAAAAGAAUAAGAAGGCACAUGAGGAUCACCCAUGUAAGAA [EteRNA is fun!],26.9 nM
